# Ends that are not written are not given here.
# Assays:
# [1] = molecular target: T1, human Neuropeptide Y Receptor Y2 (Homo sapiens, UniProt P49146); test: In vitro receptor potency: inhibition of forskolin-stimulated cAMP in hY2 CHO-K1 cells; type: cell-based; settings: for Average ratio to PYY2-36 ± SEM: ratio of example compound EC50 to PYY2-36 EC50, cAMP, hY2 CHO-K1 cells (DiscoverX), 0.02 mM forskolin, 30 minutes
# T1 construct: host or cells: CHO-K1
# T1 sequence (P49146 1-381): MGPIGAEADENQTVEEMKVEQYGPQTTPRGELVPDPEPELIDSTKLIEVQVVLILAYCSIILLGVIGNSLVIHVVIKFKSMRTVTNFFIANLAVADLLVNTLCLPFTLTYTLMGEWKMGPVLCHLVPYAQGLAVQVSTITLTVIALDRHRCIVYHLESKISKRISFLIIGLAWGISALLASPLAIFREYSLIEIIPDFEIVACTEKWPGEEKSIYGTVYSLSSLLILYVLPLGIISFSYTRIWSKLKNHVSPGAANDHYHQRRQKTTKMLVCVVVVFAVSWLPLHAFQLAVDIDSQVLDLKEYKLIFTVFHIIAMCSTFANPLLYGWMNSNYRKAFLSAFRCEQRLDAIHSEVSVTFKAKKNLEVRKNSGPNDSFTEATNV
# Procedure: (§1) DiscoverX® hY2 CHO-K1 cells (10,000 cells per well (96 well plate)) were resuspended in media containing 0.2 mM IBMX and 0.02 mM forskolin (which stimulates cAMP production) and test peptides at a range of concentrations, for 30 minutes. The reaction stopped by lysing the cells and cAMP quantified 60 minutes later using Cisbio cAMP dynamic 2 kit.
# as §1, with “Ten thousand” for “DiscoverX® hY2 CHO-K1 cells (10,000”, “plate)” for “plate))”
# [2] = tested on: overnight fasted male Wistar rats; test: Rat feeding experiment, single subcutaneous injection, food intake and body weight monitored for 6 days; type: in vivo; settings: single subcutaneous injection of peptide in saline vs control saline; monitored for following 6 days; FIGS. 3A-3D, 4A-4D
# Source text: Animals were randomised into treatment groups, with stratification by body weight.
Substance,Average ratio to PYY2-36 ± SEM [1],reductions in food intake and body weight [2],"ability to inhibit forskolin production (potency compared with Y242) ([1]; hY2 CHO-K1 cells, compared with previous generation compound Y242, FIG. 2)"
Y1421: example PYY analogue peptide; sequence given in FIGS. 1A-1D (PIKPEAPGQGASPEELLHYYAALRHFLNHVTRQRY-NH2) [Peptide Y1421],0.9 ± 0.09,,
Y1518: example PYY analogue peptide; sequence given in FIGS. 1A-1D (PIKPEAPGEGASPEELLHYYAALRHFLNHLTRQRY-NH2) [Peptide Y1518],1.7 ± 0.13,,
Pro-Ile-Lys-Pro-Glu-Ala-Pro-Gly-Glu-Gly-Ala-Ser-Pro-Glu-Glu-Leu-Leu-His-Tyr-Tyr-Ala-Ala-Leu-Arg-His-Phe-Leu-Asn-His-Val-Thr-Arg-Gln-Arg-Tyr-NH2 (PIKPEAPGEGASPEELLHYYAALRHFLNHVTRQRY-NH2) [Peptide Y1419],0.8 ± 0.16,a single initial dose is still active at 160 hours after administration,much more potent inhibitor than the previous generation of preferred compounds

# — US12617830B2, “Analogues of PYY” (IP2IPO Innovations Limited, priority 2017, dated 2026)
